{"source": "patent US20080267961A1", "about": "(published 2008)", "molecules": {"B1": {"name": "p85-sErbB3, P21860 20-538 (receptor)", "chain": "SEVGNSQAVCPGTLNGLSVTGDAENQYQTLYKLYERCEVVMGNLEIVLTGHNADLSFLQWIREVTGYVLVAMNEFSTLPLPNLRVVRGTQVYDGKFAIFVMLNYNTNSSHALRQLRLTQLTEILSGGVYIEKNDKLCHMDTIDWRDIVRDRDAEIVVKDNGRSCPPCHEVCKGRCWGPGSEDCQTLTKTICAPQCNGHCFGPNPNQCCHDECAGGCSGPQDTDCFACRHFNDSGACVPRCPQPLVYNKLTFQLEPNPHTKYQYGGVCVASCPHNFVVDQTSCVRACPPDKMEVDKNGLKMCEPCGGLCPKACEGTGSGSRFQTVDSSNIDGFVNCTKILGNLDFLITGLNGDPWHKIPALDPEKLNVFRTVREITGYLNIQSWPPHMHNFSVFSNLTTIGGRSLYNRGFSLLIMKNLNVTSLGFRSLKEISAGRIYISANRQLCYHHSLNWTKVLRGPTEERLDIKHNRPRRDCVAEGKVCDPLCSSGGCWGPGPGQCLSCRNYSRGGVCVTHCNFLNGYSKGSQSRMGGGGALQWNCSGGIQ", "modifications": "here or on the partner: Secreted glycoprotein (bound to Con A); glycans not carried by the letters."}, "B2": {"name": "p85-sErbB3 (receptor)", "chain": "B1 chain", "modifications": "Secreted glycoprotein (bound to Con A); glycans not carried by the letters."}}, "key": {"ErbB2": {"target": "ErbB2 (UniProt P04626)", "experiment": "inhibition of 125I-HRGβ177-244 (0.1 nM) binding to T47D cells; 2C4 varied"}, "HRGα EGF domain177-241": {"target": "HRGα EGF domain177-241 (UniProt Q02297)", "experiment": "cell-based or functional assay"}, "[1]": {"target": "T1, HRGβ 1 EGF domain 176-246 (UniProt Q02297-6 176-246, 125I-labelled in the crosslinking experiment (residue not stated))", "T1 sequence (looked up)": "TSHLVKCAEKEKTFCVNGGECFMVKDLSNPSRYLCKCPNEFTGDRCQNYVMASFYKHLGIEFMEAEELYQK", "experiment": "cell-based or functional assay"}, "HRGβ177-244 [2]": {"target": "HRGβ177-244 (UniProt Q02297)", "experiment": "125I-HRGβ177-244 binding to ErbB3-IgG homodimer (positive control), 96-well plate, Scatchard analysis"}, "[3]": {"target": "HRGα EGF domain177-241, Q02297", "experiment": "cell-based or functional assay"}, "HRGβ177-244 [4]": {"target": "HRGβ177-244 (UniProt Q02297)", "experiment": "inhibition of 125I-HRGβ177-244 (0.1 nM) binding to T47D cells; p85-sErbB3 varied"}, "HRGβ177-244 [5]": {"target": "HRGβ177-244 (UniProt Q02297)", "experiment": "125I-HRGβ177-244 binding to immobilized p85-sErbB3, 96-well plate, Scatchard analysis"}}, "data": [{"molecule": "2C4, a monoclonal antibody specific for the ErbB2 extracellular domain", "values": [{"measurement": "IC50", "setting": "ErbB2", "result": 0.55, "unit": "nM"}]}, {"molecule": "p45-sErbB3 (from UniProt P21860 20-329) (receptor)", "values": [{"measurement": "inhibition of HRGα-stimulated ErbB3 activation (tyrosine phosphorylation, densitometry) in Ba/F3 (ErbB2+ErbB3) cells, 1 µg/ml HRGα, conditioned medium", "setting": "HRGα EGF domain177-241", "result": 40, "unit": "%"}, {"measurement": "decrease of ligand-stimulated ErbB3 tyrosine phosphorylation in Ba/F3 (ErbB2+ErbB3) cells, 50 and 100 ng/ml HRGβ, conditioned medium", "setting": "[1]", "result": 60, "unit": "%"}]}, {"molecule": "ErbB3-IgG fusion protein (from UniProt P21860 20-643) (Fc fusion)", "values": [{"measurement": "Kd", "setting": "HRGβ177-244 [2]", "result": 4.7, "unit": "nM"}]}, {"molecule": "B1", "values": [{"measurement": "decrease of HRGα-stimulated ErbB3 activation in Ba/F3 (ErbB2+ErbB3) cells, 2 µg/ml HRGα, conditioned medium", "setting": "[3]", "result": 30, "unit": "%"}, {"measurement": "inhibition of HRGα-stimulated ErbB3 activation (tyrosine phosphorylation, densitometry) in Ba/F3 (ErbB2+ErbB3) cells, 1 µg/ml HRGα, conditioned medium", "setting": "[3]", "result": 80, "unit": "%"}]}, {"molecule": "B2", "values": [{"measurement": "IC50", "setting": "HRGβ177-244 [4]", "result": 0.45, "unit": "nM"}, {"measurement": "Kd", "setting": "HRGβ177-244 [5]", "result": 3, "unit": "nM"}, {"measurement": "inhibition of HRGβ-stimulated MCF7 cell growth, 0.4 nM HRGβ, 40 nM p85-sErbB3 (100-fold molar excess), 5,000 cells/well", "setting": "[1]", "result": 75, "unit": "%"}, {"measurement": "inhibition of HRGβ-stimulated MCF7 cell growth, 0.4 nM HRGβ, 40 nM p85-sErbB3 (100-fold molar excess), 8,000 cells/well", "setting": "[1]", "result": 90, "unit": "%"}]}]}
